In patent US8653242B2, “Therapeutic antibodies against flagellated Pseudomonas aeruginosa” (priority 2010, dated 2014):

Legend:
[1] = system: Ka02 multi-drug resistant P. Aeruginosa strain; assay: Antibiogram of Ka02 (Vitek MIC); assay type: cell-based; conditions: Ka02; for Vitek (sensitive/resistant call): calls of the two sites; for Final (sensitive/resistant call): key: S = antibiotic sensitive; R = antibiotic resistance
[2] = system: Ka02 (MDR P. aeruginosa); assay: Mouse model of pneumonia driven by Ka02; assay type: in vivo, C57 Black mice; conditions: for Animal survival at day 3: Ka02 lung infection, treatment from 1 hr post-infection; for Animal survival at day 3 / survivors at day 3: unchanged at day 9; for survivors at day 3: survivors/animals in group
Method: Sixty-one (61) male Adult C57 Black mice (25-30 g, Harlan Nossan, Milan, Italy) were housed in a controlled environment in cages with filter tops in specific pathogen-free conditions. They were briefly anesthetized with inhaled sevorane (Abbot Laboratories) in an oxygenated chamber and placed in a supine position with their heads elevated approximately 30°. Ka02 bacterial inoculums (10^6 cfu's in 50 μl of lactated Ringer's solution) were instilled slowly into the left lung of each animal using a gavage needle.
Mice were randomly divided into 3 experimental treatment groups as follows:
a) Saline-Treated (n=20): saline administered i.v. 1 hr after infection followed by one further i.p. administration at 5 hr post-infection; b) LST-002-Treated (n=21): LST-002 given i.v. 1 hr after infection at a dose of 20 mg/kg followed by one further i.p. administration at 5 hr post-infection at a dose of 15 mg/kg; c) Positive control-Imipenem-Treated (n=20): “Tienam” (Merck, Sharpe and Dohme)] (active ingredient, imipenem, a carbapenem antibiotic) given i.p. 1 hr after infection at a dose of 25 mg/kg followed by further i.p. administrations at 25 mg/kg at time points of 5 hr, 24 hr, 29 hr, 48 hr and 53 hr following infection.
Survival was monitored for all groups every 12 hrs until day 9 post-infection and data depicted in Kaplan-Meier curves (FIG. 18). […] Survival at day 9 was unchanged from survival data observed at day 3, i.e. LST-002 was 240% more efficacious in increasing survival in mice with pneumonia than a currently accepted treatment protocol and increased survival by 700% as compared with untreated mice.

[3] = system: P. Aeruginosa flagellin type A strain 27853; conditions: ELISA, LST-007 supernatant, LST-008 0.5 μg/ml
[4] = system: P. Aeruginosa strains harboring flagellin type B (Pa01, Ka01, Ka02, Ka03, Ka04, 25619, NCTC 10662); assay: Whole-bacteria binding ELISA, flagellin type B strains; conditions: LST-007 supernatant, LST-008 0.5 μg/ml
Method: P. aeruginosa laboratory strains PAK (flagellin type A) and Pa01 (flagellin type B) were grown overnight, diluted to an OD of 0.3 and washed with PBS. Fifty μl bacteria were then plated onto ELISA plates pre-coated with 50 μl poly-L-lysine (1 μg/ml in PBS) which were blocked with PBS-10% fetal calf serum (FCS). Following overnight incubation with bacteria at 4° C., plates were washed with 0.9% saline-0.05% Tween-20 and incubated with 1:2 dilutions of LST-001, LST-002, LST-007 supernatant or purified LST-003 (˜2 μg/ml) for 2 hrs at room temperature. Following washing, secondary goat anti-mouse (LST-001, LST-002) or goat anti-human detecting antibodies (LST-003, LST-007) were added and coloration generated following the addition of TMB substrate and plates read for absorbance (405 nm) following addition of 10% H2SO4.

[5] = system: MDR P. aeruginosa strain Ka02; assay: "Sandwich" motility assay, Ka02; assay type: cell-based; conditions: LST-002 0.3-80 μg/ml, even at very low concentrations
Method: Using an alternative in-vitro motility technology, the effects of LST-002 on motility of a MDR P. aeruginosa (PA) strain (Ka02) was performed. In 10 cm plastic culture dishes, a 6 ml underlayer of 0.6% agar in LB was poured and allowed to solidify. During this period, 6 ml of LB was aliquoted into separate tubes to which LST-002 was added at final concentrations 80, 20, 5, 1.25, 0.3 and 0 μg/ml. Thereafter, 10 μA of bacterial culture (containing ˜20-100 cfu) was added followed by 6 mls of 0.6% agar in LB. This ˜12 ml solution was poured onto the solidified agar under-layer. Following solidification, a final upper layer comprising of 6 mls 0.6% agar in LB was added. Plates were transferred to an incubator at 37° C. for 18-22 hr to allow bacterial growth and swarming (i.e. motility) and the diameter of the bacterial colonies measured.

[6] = system: MDR PA strain Ka02; assay: Neutropenic mouse thigh muscle infection model; assay type: in vivo, CD-1 mice
Method: Female CD-1 mice weighing 23-27 g (3-5 weeks in age) were rendered neutropenic by split i.p. administration of cyclophosphamide at doses of 150 mg/kg and 100 mg/kg on days 0 and +3. On day 4, 50 μl of freshly-grown Ka02 (2×10^7 cfu's per ml) was injected at a depth of 5 mm into the right thigh muscle (“ipsilateral”) whereas an equivalent volume of saline was injected into the left thigh muscle (“contralateral”). Over an ensuing 3 day period (days 5-7, i.e. 24, 48 and 72 hr following Ka02 administration), the surface areas of the infected thigh muscle lesions were measured with calipers in both ipsilateral and contralateral muscles. Ratios of surface areas of infection lesions of ipsilateral muscles divided by contralateral muscle lesions were calculated with ratios >1 indicative of Ka02. This calculation is called the Ratio-Infection Index (RII). In some mice, LST-002 was administered i.v. at 20 mg/kg, 60 min after administration of Ka02. Further dosing of LST-002 (10 mg/kg) was given i.p. at time points+5 hr, +24 hr and +48 hr after infection.

[7] = single i.v. injection at 10 mg/kg; preliminary
[8] = system: laboratory strain Pa01; assay: "Sandwich" motility assay, Pa01; assay type: cell-based, P. aeruginosa; conditions: LST-002 0.3-80 μg/ml, even at very low concentrations
[9] = ipsilateral/contralateral lesion area, 20 mg/kg i.v. +60 min, 10 mg/kg i.p. +5, +24, +48 hr

Molecule | Final (sensitive/resistant call) [1] | Vitek (sensitive/resistant call) [1] | Animal survival at day 3 [2] | survivors at day 3 [2] | also measured
C[C@@H](O)[C@H]1C(=O)N2C(C(=O)O)=C(SCCN=CN)C[C@H]12 [Imipenem] | R | R | 30% | 6/20 | –
Ticracillin/CA | R | R | – | – | –
Trimethoprim-Sulfamethoxazole | R | R/R | – | – | –
LST-007: human IgM monoclonal antibody of U.S. Pat. No. 4,834,976, specific to P. aeruginosa flagellin type B (antibody, V domains shown) VH: MDWTWRVFFLLAVAPGAHSQVRLVQSGTEVKKPGASVRVSCKASGYTFSNYYMYWVRQAPGQGLEWMAMINPSGGSTRYAQKFQGRVTMTRDTSTSTVYMELSSLRSEDTAVYYCARADSGSYFGYWGQGTLVTVSS VL: MRVPAQLLGLLLLWLPGARCDIQLTQSPSFLSASVGDRVPITCRASQGISTHLAWYQQKPGKAPKLLIYAASTLQSGVPSRFSGSGSGTEFTLTISSLQPEDSATYYCQQLKSYPLTFGGGTKVEIKR | – | – | – | – | binding to whole bacteria harboring flagellin type A [3]: not flagellin type A; binding to whole bacteria harboring flagellin type B [4]: specifically binds to all seven P. Aeruginosa bacteria strains tested
LST-002: mouse monoclonal antibody of U.S. Pat. No. 4,834,976, specific to P. aeruginosa flagellin type B (antibody, V domains shown) VH: EVMLVESGGGLVKPGGSLKLSCAASGFTFSTFTMSWVRQTPEKRLECVATINGGGGNTYYPDSVKGRFTISRDNAKNNLYLQMSSLRSEDTAFYFCSRLYGIYAMDYWGQGTSVTVSS VL: MKSHTQVFVYMLLWLSGVEGDIVMTQSHIFMSTSVGDRVSITCKASQDVGSAVAWYQQKPGQSPKVLIYWTSTRHTGVPDRFAGSGSGTEFTLTISNVQSEDLADYFCQQYSSYPLTFGAGTKLELKR | – | – | 71.4% | 15/21 | size of bacterial colonies (motility) [5]: significant reduction in the size of bacterial colonies; increased survival as compared with untreated mice ([2]; day 3 / day 9 survival): 700%; more efficacious in increasing survival than currently accepted treatment protocol (imipenem) ([2]; day 3 / day 9 survival): 240%; Ratio-Infection Index (RII) day 5 [6, 9]: 1.09; Ratio-Infection Index (RII) day 7 [6, 9]: 0.96; infection lesions in thigh muscle infected with Ka02 ([6]; neutropenic mice): totally prevented infection lesions; early plasma concentration [7]: ~200 µg/mL; size of bacterial colonies (motility) [8]: significant reduction in the size of bacterial colonies
